Columns and labels:
HA-Rtn2 (maize) [1] = target: HA-Rtn2 (maize)
[2] = target: HA-Rtn2(mAIM1,2,5,6) (maize)
HA-Rtn2 (maize) [3] = assay: co-IP; anti-HA affinity gel on lysates of Arabidopsis protoplasts (wild type; also atg5-1) transiently expressing the proteins, incubated with or without 2 mM DTT or 5 μg/mL tunicamycin for 3 hr; 150 mM Tris-HCl pH 7.5, 150 mM NaCl, 1.5% Triton X-100, 2 hr at 4°C
GFP-Atg8a = assay: co-immunoprecipitation, densitometry of immunoblots; conditions: Arabidopsis protoplasts; immunoprecipitation with anti-HA antibodies; three biological replicates; parent: est. 1.0; read off a plot
[4] = target: maize Atg8a, split-ubiquitin two-hybrid fusion; assay: split-ubiquitin Y2H; conditions: colonies on -LWHA medium versus -LW medium, bait pBT3N-ATG8a, parent: est. 52, read off a plot

## GFP-Atg8a (natural protein)
HA-Rtn2 (maize) [1]
  percent of Arabidopsis protoplasts (DTT and ConA) with autophagic bodies labeled with both GFP-Atg8a and Rtn2-mCherry (Rtn2 as mCherry fusion): 54%
HA-Rtn2(mAIM1) (maize)
  percent of Arabidopsis protoplasts (DTT and ConA) with autophagic bodies labeled with both GFP-Atg8a and Rtn2(mAIM1)-mCherry (mCherry fusion): 42%
[2]
  percent of Arabidopsis protoplasts (DTT and ConA) with autophagic bodies labeled with both GFP-Atg8a and Rtn2(mAIM1,2,5,6)-mCherry (mCherry fusion): 23%
HA-Rtn2 (maize) [3]
  fold increase in binding upon DTT treatment against no DTT: 3 fold

## HA-Rtn2 mAIM1
GFP-Atg8a
  ratio to parent: 0.87

## HA-Rtn2 mAIM1,2,5,6
GFP-Atg8a
  ratio to parent: 0.02

## HA-Rtn2 mAIM1,5
GFP-Atg8a
  ratio to parent: 0.38

## HA-Rtn2 mAIM1,5,6
GFP-Atg8a
  ratio to parent: 0.22

## maize Rtn2, split-ubiquitin two-hybrid fusion mAIM1
[4]; prey pPR3C-Rtn2(mAIM1)
  response: 33%

## maize Rtn2, split-ubiquitin two-hybrid fusion mAIM1,2,5,6
[4]; prey pPR3C-Rtn2(mAIM1,2,5,6)
  response: 7%

## maize Rtn2, split-ubiquitin two-hybrid fusion mAIM1,5
[4]; prey pPR3C-Rtn2(mAIM1,5)
  response: 16%

## maize Rtn2, split-ubiquitin two-hybrid fusion mAIM1,5,6
[4]; prey pPR3C-Rtn2(mAIM1,5,6)
  response: 12%

Source: paper PMC7046470
